Experimental data reported in US20180016328A1 (WASHINGTON UNIVERSITY, published 2018).
One block for each binder: values may come before it.

Biological target: T1, mouse tau (mouse, UniProt P10637-2 2-430, limits assumed)
T1 construct: also called mouse brain lysate comprising tau
Assay: Western blot of mouse brain lysate probed with the scFv (FIG. 4)
Source text: FIG. 4 depicts Western blots showing that the scFv's detect human but not mouse tau. Mouse brain lysate comprising tau and recombinant human tau were both run on a gel and the scFv's SC1 (A) and SC3 (B) were used to detect tau. Recombinant human tau was detected by SC1 and SC3; mouse tau was not. Anti-vinculin Western blot was used as a loading control for tissue samples.

T1 sequence (P10637 other isoform, or with tags, fused parts or gaps limits assumed): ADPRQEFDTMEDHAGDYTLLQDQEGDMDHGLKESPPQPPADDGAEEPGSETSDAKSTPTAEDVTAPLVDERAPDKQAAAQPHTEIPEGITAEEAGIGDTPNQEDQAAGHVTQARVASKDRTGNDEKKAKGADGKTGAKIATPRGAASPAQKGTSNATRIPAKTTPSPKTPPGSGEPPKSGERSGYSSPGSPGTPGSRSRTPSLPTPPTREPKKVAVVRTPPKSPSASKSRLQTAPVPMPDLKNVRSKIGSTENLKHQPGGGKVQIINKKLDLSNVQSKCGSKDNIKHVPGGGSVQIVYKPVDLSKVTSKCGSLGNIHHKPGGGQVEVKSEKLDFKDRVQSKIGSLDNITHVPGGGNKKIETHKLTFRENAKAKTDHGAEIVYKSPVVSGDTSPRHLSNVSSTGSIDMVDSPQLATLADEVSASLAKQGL

binding result: no binding
B1: SC1 scFv HJ8.5 HA (scFv)
scFv: DIVLTQSPASLAVSLGQRATISCRASQSVSTSRYSYIHWYQQKPGQPPKLLIKYASNLESGVPARFSGSGSGTDFTLNIHPLEEEDAATYYCHHSWEIPLTFGAGTKLELKGGGSEVKVEESGGGLVQPGGSMKLSCVVSGFTFSNYWVNWVRQSPEKGLEWVAQIRLKSDNYATHYEESVKGRFTISRDDSKSSVYLQMNNLRAEDSGIYYCTNWEDYWGQGTTLTVSSYPYDVPDYA
notes: Encoded with an N-terminal secretory signal peptide (SP), left out here because the secreted protein was tested; also called HJ8.5 scFv SC1

binding result: no binding
B2: SC3 scFv HJ8.5 HA (scFv)
scFv: DIVLTQSPASLAVSLGQRATISCRASQSVSTSRYSYIHWYQQKPGQPPKLLIKYASNLESGVPARFSGSGSGTDFTLNIHPLEEEDAATYYCHHSWEIPLTFGAGTKLELKSGGGSGGGSGGGSEVKVEESGGGLVQPGGSMKLSCVVSGFTFSNYWVNWVRQSPEKGLEWVAQIRLKSDNYATHYEESVKGRFTISRDDSKSSVYLQMNNLRAEDSGIYYCTNWEDYWGQGTTLTVSSYPYDVPDYA
notes: Encoded with an N-terminal secretory signal peptide (SP), left out here because the secreted protein was tested; also called HJ8.5 scFv SC3
